In the nanobody polyreactivity screen of Harvey et al. (2022):

Experiment: yeast display, Sf9 membrane polyspecificity reagent, FACS + sequencing; frameworks hold sequencing errors
How it was run: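 Polyreactivity labels are assigned by the sorting gate from which each nanobody was recovered. The gates were low and high (top ~1%), set on anti-HA fluorescence for expression and streptavidin fluorescence for reagent binding. Before sorting, galactose-induced (36–48 hours) yeast display cells were stained for 1 hour at 4 °C with 10% biotinylated, detergent-solubilized Sf9 membrane reagent.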

Sequence	polyreactivity (PSR sort gate)
QVQLVESGGGLVQAGGSLRLSCAASGSIFGAYTMGWYRPAPGKERELVAALSIGGSTNYADSVKGRFTISRDNAKNTVYLQMNSLKPEDTAVYYCNAEPHREDWWWAIGLYDYWGQGTQVTVSS	high polyreactivity
QVQLVESGGGLVQAGGSLRISCAATGRIFGPYTMGWYRQAPGKERELVARISRRGGSTYYADSVKGRFTISRDNAKNTVYFQMNSLKPEDTAVYYCARSQAVYDGWFAKFGYWGQGTQVTVSS	high polyreactivity
QVQLVESGGGLVQAGGSLRLRCAASGYTLTPYTMGWYRQAPGKERELVAAINRSGGSTYYADSVKGRFTISRDNAKNTVYLQMNSLKPEDTAVYYCAAYGYYNFGYYYWGQGTQVTVSS	high polyreactivity
QVQLVESGGGLVQAGGSLRLSCAASGRIFYTNTMGWYRQAPGKERELVAAIRSGTRTYYADSVKGRFTISRDNAKNTVYLQMNSLKPEDTAVYYCAAYYSYYGGDYWGQGTQVTVSS	low polyreactivity
QVQLVESGGGLVQAGGSLRLSCAASGFTFWRYTMGWYRQAPGKERELVAAISGGTTTYYADSVKGRFTISRDNAKNTVYLQMNSLKPEDTAVYYCAAYSQRARTYDYWGHGTQVTVSS	high polyreactivity
QVQLVESGGGLVQAGGSLRLSCAASGFIIRRYAMGRYRQAPGKEREMVASIDRSGASTYYADSVKGRLTISRDNAKYTVYLQMNSLKPEDTAVYYCNKAFAWTGWYSVQGDYWGQGTQVTVSS	high polyreactivity
QDQHVESGGGLVQAGGSLRLSCAASGRTFSYYTMGWYRQAPGKERELVAAISRRGGNTYYADSVKGRFTISRDNAKNTVYLQMNSLKPADTAVYYCAALSYAKHYDPSGYDYWGQGTQVTVSS	high polyreactivity
QVQLVESGGGLVQAGGSLRLSCAASVYAMGWYRQAPGKERELVAAITDSGSTNYADSVKGRFTISRDNAKNTVYLQMNTLKPEDTAVYYCNADPYYATGSWARLPLYQYDYWGQGTQVTVSS	low polyreactivity
QVQLVESGGGLVQAGGSLRLSCAASGRTFYINAMGWYRPEPGKERELVAAISSSGGITYYADSVKGRFTISRDNAKNTVNLQMIRLKPEDTAVYYCNAPNDYSWHYDYWGQGTQVTVSS	low polyreactivity
QVQLVESGGGLVQAGGSLRLSCAASGRTFPLYAMGWYRQAPGKERELVAAISWSGGSTYYADSVKGRFTISRDHAKNTVYLQMNSLKPEDTAVYYCNTLGRLTGRYGWSSKYYYWGQGTQVTVSS	high polyreactivity
QVQLQESCGALVQAGGTLRLSCAASGSIFEQLDMGWNRQAPGKELEFVAAIGTGSTTYYADSVKGRFSISRDNAKNTVYLQRNSLKPEDTAVYYCAVTYSVYLPFRYWGQGTQVTVSS	high polyreactivity
QVQLVESGGCLVQAGCSLRLSCAASGRIFGYYVMGWYRQAPGKERELVAAIRSSADSTYYADSVKGRFTISRDNAKNTVYLQMNSLKPEDTAVYYCAAQSPAYYTKSYWGQGTQVTVSS	low polyreactivity
QVQLVESGGGLFQAGGRLRLSCAPSGFNFGGYVMGWYRQAPGKDRELVAAISSSGGITHYADSVKGRFTISRDNANNTVYLQMNSLKPEDTEVYYCNALYRKRYYWGQGTQVTVSS	high polyreactivity
QVQLVESGGGLVQAGGSLRLSCAASGFIFRYNPMGRYRHAPGKEREFVAAIDSGGSTYYADSVKGRFTISRDNAKNTVYLQMNSLKPEDTAVYYCNAVHEASYAGVDYWGQGTQVTVSS	low polyreactivity
QVQLVESGGGLVQAGGSLRLSCAASGFTFYYYAMGWYRQAPGTERELVASITSTDSTTYADSVKGRFTISRDNAKNTVYLQMNSLKPEDTAVYYFNRLYYHWYGGLDYWGHGTQVTVSS	high polyreactivity
HVQLVDSGGGLVQAGGSLRLSCAASGSIFRYYTMGWYRQAPGKERELVAAISWSGGRTYYAHSVKGRFTISRDKAKNTVYLQMNSLKPEDTAVYYCAAVRPYYYPLPTVPNLPYDYWGQGTQVTVSS	high polyreactivity
QVQLVESGGGLVQAGGSLRLSCAASGSIFLTNAMGRYRQAPGKERELVAAIRSGGSTSYADSVKGRLTISRDNAKNTVYLQMNSLKPEDTAVYDCNAESDSRNYKVHPSGIYEYWGQGTQVTVSS	low polyreactivity
QVQLVESGGGLVQAGGSLRLICAASGRTNGVYVMGLYRQAPGKERELVAAIRKGVGSTYYADSVKGRFTISRDNAKNTVYLQMNSLKPEETAVYYCAADTRHYRYGYWGQGTQVTVSS	low polyreactivity
QVQLVESGGGLVQAGGSLRLAVLPPDLPSTLNDMGWYRQAPGKERELVAAITRGGSTNYADSVKGRFTISRDNAKNTVYLEMNSLKPEDTAVYYCAAPYAGWRDGGDYWGQGTQVTVSS	low polyreactivity
QVQLVESGGGLVQAGGSLRLSSAASGSIFWHYAMGRYRQAHGKERQLVAGISTRGGITYFADSVKGRFTISRDNAKNTVYLQMNSLKPEDTAVYYCNGVLFFQWFWTYDDYWGQGTQVTVSS	low polyreactivity
QVQLVESGGGLVQAGGSLRLSCPASGRIFYPYPKGWYRQAPGKERELVATITRTGSTYYADSVKGRFTITRDNAKNTVYVQMNSLKPEDPAVYYCAVQRSYVGPRQYNYWGQGTQVTVSS	high polyreactivity
QVQLVESGGGLVQAGGSLRLSCAASGSTFGNNAMGWYRPAPGKERELVAGIRRSSNTYYADSVKGRFTISRDNAKNTVYLQMNSLKPEDTAVYCCNADNILYGSTLDYWGQGTQVTVSS	low polyreactivity

Sequence	polyreactivity (PSR sort gate)
QVQLVESGGGLVQAVGSLRLSCAASGFIFVGYAMGWYRQAPGKERELVAAITGGGTTYYADSVKGRFTISRDNAKNSVYLQMNSLKPEETAVYYCAKDRPRKDTQRWRYGHWGQGTQVTVSS	high polyreactivity
QGQLVESGGGLVQAGGSLRLSCAASGSILRSYAMGWSIQAPRKVRELVATITRSAGRTYYADSVKGRFTISRDNAKNTVYLQMNSLKPEDTALYYCAACYCDTETGYREYDYWGQGTQVNVSS	low polyreactivity
QVHLQESGGGMVQAGGSLRLSCAESGNIFLGDTMGWYRQPPGKEREFVAGIARGGNPYYADSLKGRFTISRNNAKNTVYLQKNSLKPEDTAVHYCAFLRSHASDYIYWGQGTQVTVSS	low polyreactivity
QVQLVESGGGLVQAGGSLRLSCAASGSTFGFYAMGWYRQAPGKERELVAAITGGGSTNYADSVKGRFTISRDNAKNTVYLQMNSLNPEDTAVYYCAVVQRYWYPGIVPYDYWGQGTQVTVSS	high polyreactivity
QVQLVESGGGLVQAGGSLRLSCAASGSTFVTYTMGWYRQAPGKERELVAAISWSGDTTYADSVKGRFTISRDNAKNTVYLQMNSLKPVDTAVYYCAADDDWSGVEFDYLGQGTQVTVSS	low polyreactivity
QVQLVESGGGLVQAGGSLRLSCAASGFIFPFYAMGWYRQAPGKEREFVAAITLSSGSTYYADSVKGRFTISRDNAKNTVFLQMNSLKPEDTAVYYCNADYNVYLYYGYDYWGQGTHVTVSS	low polyreactivity
QVQLVESGGGLVQAGGSLRLSCAASGFTFTYYAMGWYRQAPGKERELVAAISGNGGSTYYADSVKGRFTISRDNAKNTVYLQMNSLKPEDTAVYYCNALPKSVGRWYRGDYWGQGTQVTVSS	high polyreactivity
QVQLVESGGGLVQAGGSLRLSCAASGRTFWDYGMGWYRQAPGKDRELDATISGNGGDTYYADSVKGRFTISRDTAKNTVYLQMNSLKPEDTAVYYCAADYRFYRTDRHYDYWGQGTQVTVSS	low polyreactivity
QVQLVESGGGLVQAGGSLRLSCADSGSIFGPYAMGWYRQAPGKEREFVAAISRSGTRTNYADSVKGRFTISRDNAKNTVYLQMNSLKPEDTAVYYCNARYVSASRNRGKSRYDYWGLGTQVTVSS	high polyreactivity
QVQLVESGGGLVQAGGSLRLSCAASGSISVYNAMGWYRPAPGKERELVAAISWSGGRTSYADSVKGRFTISRDHAKNTVYLQMNSLKPEDTAVYYCAADELSVLWDEDYWGQVTQVTVSS	low polyreactivity
QVQLVESGGGLVQAGGSLRLSCAASGSIFLLYAMGWYRQAPGKERELVAAMSRGGSTYADSVKGRFTISRDNAKNTVYLQMNSLKPEVTAVYYCAASDQYRWYVHRWEDPFYYWGQGTQVTVSS	low polyreactivity
QVQLVESGGGLVQAGGSLRISCAASGIIFSYYAMGWYRQAPGKERELVAAIRENGGSTYYADSVKGRFTISRDNAKNTVYLQMNSLKPEDTAVYYCAVDTTYYAGYEYDYWGQGTQVTVSS	low polyreactivity
QVQLVESGGGLVQAGGSLRLSCAASGSTFPGYAMGWYRQAPGKERELVASITSSGDNTYYADSVKGRFTISRDNAKNSVYLQMNSLKPEDTAVYYCAAPTKYRSRRYYWGQGTQVTVSS	high polyreactivity
QVQLVDSGGGLVQAGGSLRISCAASGRNFGYNAMGSYRQAPGKERELVAAISSGGSTYYADSVKGLFTISRDNAKNTVYLQINSLKPEDTAVYFCAAEDYPPYPTDYDYWGQGSQVTVSS	low polyreactivity
QVQLVESGGGLVQAGGSLRLSCAASGFTFNYYAMGWYRQAPGKERELVAAISRSGGNTYYADSVKGRFTISRDNAKNTVYLQMNSLKPEDTAVYYCAAYLRSYVRYYYWGQGTQVTVSS	high polyreactivity
QVQLVESGGGLVQAGGSLRLSCAACGRIFVYYVMGWYRQAPGKERELVAAISNSGTSTYYADSLKGRFTISRDNAKNTVYLQMNSLKPEDTAVYYCNTVGQRWLSDDDYWGQGTQVTVSS	low polyreactivity
QVQLVESGGGLVQAGGSLRLSCAASGFTFSENTMGWYRQAPGKERELVADIDSGGSTYYADSVKGRFTISRDNAKNTVYLQMNSLKPEVTAVYYCAIDYHVVGGQTFLFEYDYWGQGTQVTVSS	low polyreactivity
QVQLVESGGGLVQAGGSLRLSCAASGRTFRGYTMGWYRQAPGKERELVAAINWSGGRTYYADSVKGRFTISRDYAKNTVYLQMNSLKPEDTAVYDCNAVTQITGSSDGDYWGQGTQVNVSS	high polyreactivity
QVQLEESGGGLVQAGGSLRLSCAASGLTLGRYAMGWYRQAPGKERELVAVITGGGSTNYADSVKGRFTISRDNAKNTVYLQMNSLKPEDTAVYSCAVRGGIFQTLSTWYRYYYWGQGTQVTVSS	high polyreactivity
QVQLVESGGGLVQAGGSLRLSCAASGITFYGYAMGWYRQAPGKERELVAAISSRGGSTYYADSVKGRFTISRDNAKNTVYLQMNRLKPEDTAVYYCAAVYYTGEYYYWGQGTQVTVSS	high polyreactivity
QVQLVESGGGLVQAGGSLRLSCAASGSLFRINAMGWYRQAPGKERELVAAITGRVGSTYYADTVKGRFTISRDNAQNTVYLQMNSLKPEDTAVYYCAARAGSSRYTREYRYDYWGQGTQVTVSS	high polyreactivity
